{"source": "patent US20080248458A1", "about": "(UNIVERSITY OF NORTH CAROLINA AT CHAPEL HILL, published 2008)", "binders": {"B1": {"name": "GST-Ring1B (other, mouse, UniProt Q9CQJ4 2-336, looked up)", "chain": "SQAVQTNGTQPLSKTWELSLYELQRTPQEAITDGLEIVVSPRSLHSELMCPICLDMLKNTMTTKECLHRFCADCIITALRSGNKECPTCRKKLVSKRSLRPDPNFDALISKIYPSRDEYEAHQERVLARINKHNNQQALSHSIEEGLKIQAMNRLQRGKKQQIENGSGAEDNGDSSHCSNASTHSNQEAGPSNKRTKTSDDSGLELDNNNAAVAIDPVMDGASEIELVFRPHPTLMEKDDSAQTRYIKTSGNATVDHLSKYLAVRLALEELRSKGESNQMNLDTASEKQYTIYIATASGQFTVLNGSFSLELVSEKYWKVNKPMELYYAPTKEHK", "notes": "mature; Full-length cDNA cloned into pGEX-KG; also called GST fusion of Ring1B; not shown: glutathione S-transferase (GST) encoded by the pGEX-KG vector"}, "B2": {"name": "Ring1B (enzyme, mouse, UniProt Q9CQJ4 2-336, looked up)", "chain": "B1 chain", "notes": "mature; Untagged protein: 35S-labelled in vitro translation product (pCITE, full-length cDNA) in the GST pull-down; baculovirus-expressed in Sf9 cells in the co-purifications; also called Ring2; Ring2/Ring1B"}, "B3": {"name": "Bmi-1 (other, mouse, UniProt P25916 1-324, looked up)", "chain": "MHRTTRIKITELNPHLMCVLCGGYFIDATTIIECLHSFCKTCIVRYLETSKYCPICDVQVHKTRPLLNIRSDKTLQDIVYKLVPGLFKNEMKRRRDFYAAHPSADAANGSNEDRGEVADEEKRIITDDEIISLSIEFFDQSRLDRKVNKEKPKEEVNDKRYLRCPAAMTVMHLRKFLRSKMDIPNTFQIDVMYEEEPLKDYYTLMDIAYIYTWRRNGPLPLKYRVRPTCKRMKMSHQRDGLTNAGELESDSGSDKANSPAGGVPSTSSCLPSPSTPVQSPHPQFPHISSTMNGTSNSPSANHQSSFASRPRKSSLNGSSATSSG", "notes": "mature; Untagged protein: 35S-labelled in vitro translation product in the GST pull-down; baculovirus-expressed in Sf9 cells in the two-component complex with FLAG-Ring1B"}, "B4": {"name": "FLAG®-Ring1B (protein)", "chain": "DYKDDDDKMSQAVQTNGTQPLSKTWELSLYELQRTPQEAITDGLEIVVSPRSLHSELMCPICLDMLKNTMTTKECLHRFCADCIITALRSGNKECPTCRKKLVSKRSLRPDPNFDALISKIYPSRDEYEAHQERVLARINKHNNQQALSHSIEEGLKIQAMNRLQRGKKQQIENGSGAEDNGDSSHCSNASTHSNQEAGPSNKRTKTSDDSGLELDNNNAAVAIDPVMDGASEIELVFRPHPTLMEKDDSAQTRYIKTSGNATVDHLSKYLAVRLALEELRSKGESNQMNLDTASEKQYTIYIATASGQFTVLNGSFSLELVSEKYWKVNKPMELYYAPTKEHK"}}, "key": {"Ring1A": {"target": "T1, Ring1A (mouse, UniProt O35730 1-406)", "T1 construct": "mature; Untagged protein: 35S-labelled in vitro translation product in the GST pull-down; baculovirus-expressed in Sf9 cells in the co-purifications; also called Ring1/Ring1A", "T1 sequence (looked up)": "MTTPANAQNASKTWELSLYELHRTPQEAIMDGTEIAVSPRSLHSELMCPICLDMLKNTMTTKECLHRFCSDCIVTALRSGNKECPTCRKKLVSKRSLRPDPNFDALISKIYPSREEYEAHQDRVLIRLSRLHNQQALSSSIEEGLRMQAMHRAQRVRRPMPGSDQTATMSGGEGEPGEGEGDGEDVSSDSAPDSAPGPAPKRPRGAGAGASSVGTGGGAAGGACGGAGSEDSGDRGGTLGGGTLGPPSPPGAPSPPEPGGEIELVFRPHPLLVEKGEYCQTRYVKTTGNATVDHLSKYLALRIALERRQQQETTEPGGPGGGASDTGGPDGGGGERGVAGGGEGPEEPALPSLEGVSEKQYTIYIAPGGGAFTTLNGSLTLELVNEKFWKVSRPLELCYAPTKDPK", "assay": "GST pull-down with 35S-labelled in vitro translated protein (FIG. 5A)", "procedure": "(§1) Full-length cDNAs for Ring1B, Ring1A, Bmi-1, Pc3 and Ph2 were inserted into pCITE vector for in vitro translation using the rabbit reticulocyte lysate kit according to the manufacturer's instructions (PROMEGA, Madison, Wis.). Full-length cDNAs for Ring1B, Ring1A, Bmi-1, Pc3 and Ph2 were also cloned into pGEX-KG vector for the production of GST-fusion proteins. About 3 μg of GST or GST fusion proteins were bound to 10 μL of glutathione-immobilized agarose beads (Sigma) and incubated with in vitro-translated products in 500 μL buffer A (50 mM Tris-HCl [pH 7.9], 0.5 mM EDTA, 1 mM dithiothreitol, 0.2 mM phenylmethylsulfonyl fluoride, 10% glycerol) containing 150 mM KCl and 0.05% NP-40. After incubation at 4° C. for 2 hours, the beads were washed three times with buffer A containing 300 mM KCl and 0.05% NP-40 and then washed once in buffer A containing 50 mM KCl before being subjected to SDS-PAGE and autoradiogram.\n(§2) To address the effect of other subunits on Ring1B enzymatic activity, an attempt was made to reconstitute Ring1B-containing subcomplexes. Toward this end, the precise spatial relationship among components of the complex were first defined using GST full-down assays. Individual components were expressed as GST fusion proteins and equal amounts of the fusion proteins, as well as GST alone (FIG. 5A, last panel), were immobilized onto beads and incubated with ³⁵S-labeled proteins. […]"}, "GST-Ring1A": {"target": "T2, GST-Ring1A (mouse, UniProt O35730 1-406)", "T2 construct": "mature; Full-length cDNA cloned into pGEX-KG; also called GST fusion of Ring1A; not shown: glutathione S-transferase (GST) encoded by the pGEX-KG vector", "T2 sequence (looked up)": "T1 sequence (looked up)", "assay": "GST pull-down with 35S-labelled in vitro translated protein (FIG. 5A)", "procedure": "as §1, §2"}, "FLAG®-Ring1B": {"target": "T3, FLAG®-Ring1B (mouse, UniProt Q9CQJ4 1-336)", "T3 construct": "also called F-Ring1B", "T3 sequence": "B4 chain", "assay": "co-expression in Sf9 cells, anti-FLAG purification, silver stain (FIG. 7A)", "procedure": "To purify the recombinant PRC1 complex and sub-complexes, different baculoviruses were used to co-infect SF9 cells. After two days of infection, cells were collected and resuspended in F lysis buffer [20 mM Tris (pH 7.9), 500 mM NaCl, 4 mM MgCl₂, 0.4 mM EDTA, 2 mM DTT, 20% glycerol, 0.1% NP40] with proteinase inhibitors. Then cells were homogenized with pestle A three times (10 strokes each) in a period of 30 minutes. The supernatant was recovered by centrifuging at 11,000 rpm for 10 minutes. The supernatant was adjusted to 300 mM NaCl by adding Dilution buffer [20 mM Tris (pH 7.9), 10% glycerol], then incubated with the M2 α-FLAG® agarose (Sigma, St. Louis, Mo.) equilibrated with F lysis buffer for 4 hours at 4° C. After washing with F washing buffer [20 mM Tris (pH 7.9), 150 mM NaCl, 2 mM MgCl₂, 0.2 mM EDTA, 1 mM DTT, 15% glycerol, 0.01% NP40] until no protein came out, bound proteins were eluted with 0.2 mg/ml FLAG® peptide ([…]; SEQ ID NO:5) in F washing buffer for 20 minutes each time at room temperature. The eluted complexes were further purified through a gel-filtration SEPHADEX 200 or SUPEROSE 6 column. […]"}, "Ring1B": {"target": "B2", "assay": "purification of two-component complexes from infected insect cells (FIG. 13D)"}, "Bmi-1, P25916": {"target": "T4, Bmi-1, P25916", "T4 chain": "B3 chain"}}, "data": [{"binder": "B1", "values": [{"measurement": "binding result", "setting": "Ring1A", "result": "no binding"}]}, {"binder": "B2", "values": [{"measurement": "binding result", "setting": "GST-Ring1A", "result": "no binding"}]}, {"binder": "B3", "values": [{"measurement": "binding result", "setting": "FLAG®-Ring1B", "result": "binds"}, {"measurement": "binding result", "setting": "Ring1B", "result": "binds"}]}, {"binder": "B4", "values": [{"measurement": "E3 ligase activity (ubiquitylation of nucleosomal substrates)", "setting": "Bmi-1, P25916", "result": "stimulated its E3 ligase activity"}]}]}
